In one assay the target is huCD3e (human, UniProt P07766 23-126). In words: Octet primary screen, crude lysate. The method, then: Stability and affinity of the individually expressed molecules in the form of crude lysate was evaluated by Octet. […] The binding of these anti-CD3 molecules (CD3.227, CD3.228, CD3.229 and CD3.230) to human and cynomolgus CD3 was measured by Octet and the Tₘ was measured by Differential Scanning Fluorimetry. All variants were paired with an anti-PSMA VHH.
(Biolayer interferometry detects binding as a change in optical thickness at a sensor tip.)

The target in another assay is T1, huCD3e-Fc (human, UniProt P07766 23-126).
T1 construct: not shown: Fc, not described
In words: Octet, purified paTCE. The procedure:
(§1) […] […] The binding of these anti-CD3 molecules (CD3.227, CD3.228, CD3.229 and CD3.230) to human and cynomolgus CD3 was measured by Octet and the Tₘ was measured by Differential Scanning Fluorimetry. All variants were paired with an anti-PSMA VHH.

A further assay deals with T2, cyCD3e-Fc (cynomolgus, UniProt Q95LI5 22-117).
T2 construct: not shown: Fc, not described
T2 sequence (looked up): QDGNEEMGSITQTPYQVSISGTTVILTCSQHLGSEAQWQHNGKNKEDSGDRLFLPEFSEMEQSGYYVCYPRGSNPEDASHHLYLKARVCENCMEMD
In words: Octet, purified paTCE. The procedure: as §1

Assay [1] deals with T3, human CD3 (human, UniProt P07766 23-126). Briefly: Octet, crude lysate. The procedure:
Structural considerations included: possible contact disruption, anticipated steric clashes, side chain charge maintenance and possible pockets filling. Stability and affinity of the individually expressed molecules in the form of crude lysate was evaluated by Octet (ForteBio).

The target of assay [2] is T4, human EGFR (human, UniProt P00533 25-645, limits assumed).
T4 construct: on HT-29 cells in the cytotoxicity assay; also called epidermal growth factor receptor
Briefly: BLI, room temperature. The method, then:
Each construct was expressed in small-scale and purified. Thermal stability was determined by Differential Scanning Fluorimetry. Melting temperature (Tₘ) determined by Differential Scanning Fluorimetry experiments described herein were performed either in duplicate or triplicate using GloMelt™ dye and QuantStudio5™. GloMelt™ dye undergoes fluorescence enhancement upon binding to hydrophobic regions of denatured proteins. Therefore, the dye can be used to detect protein unfolding or measure thermal stability. GloMelt™ dye is optimized for detection in the SYBR® Green channel of qPCR instruments. The Differential Scanning Fluorimetry experiments were performed in 96-well plates with 10 μg protein/reaction (equal to 0.5 mg/mL final protein concentration), reaction buffer, and GloMelt™ 10× dye according to manufacturer's instructions. Fluorescence of 96-well plates was read and melt curve plots were generated in the QuantStudio5™ qPCR system. Binding affinity was analyzed with bio-layer interferometry at room temperature with human EGFR as the antigen.

In assay [3] the target is T3, human CD3. In words: method not stated.
Assay [4] has as its target T4, human EGFR. In words: cell-based or functional assay.

As a reminder, the Kd is the free concentration of one partner at which half of the binding sites on the other are occupied at equilibrium, for simple one-to-one binding. As usually defined, the koff is the rate constant with which the complex falls apart. Low values mean slow dissociation, high ones fast dissociation. Broadly, the kon is a measure of how fast the partners come together. Low readings indicate slower complex formation, high ones faster complex formation.

Positions count from the first letter of the chain named.

T3 sequence (P07766 23-126 limits assumed): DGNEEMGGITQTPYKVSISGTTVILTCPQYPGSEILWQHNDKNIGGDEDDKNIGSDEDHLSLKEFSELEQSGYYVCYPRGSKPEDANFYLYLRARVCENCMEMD
T1 sequence (P07766 23-126): as the sequence (P07766 23-126 limits assumed) above
Sequence of huCD3e (P07766 23-126): as the sequence (P07766 23-126 limits assumed) above

B1: AC2717 (CD3.23, WT) (bispecific antibody, V domains shown)
VH: EVQLLESGGGIVQPGGSLKLSCAASGFTFNTYAMNWVRQAPGKGLEWVARIRSKYNNYATYYADSVKDRFTISRDDSKNTVYLQMNNLKTEDTAVYYCVRHENFGNSYVSWFAHWGQGTLVTVSS
VL: ELVVTQEPSLTVSPGGTVTLTCRSSNGAVTSSNYANWVQQKPGQAPRGLIGGTNKRAPGTPARFSGSLLGGKAALTLSGVQPEDEAVYYCALWYPNLWVFGGGTKLTVL
notes: Pool 2 format (remarks); paired with an anti-PSMA VHH variant
B1 displayed a Kd in the assay with huCD3e of 12.9 nM.

B2: CD3.23 anti-CD3 scFv (scFv, V domains shown)
VH: B1 VH
VL: B1 VL
notes: Parental domain
B2: in the assay with huCD3e-Fc, the equilibrium dissociation constant (Kd) was found to be 131 nM, the koff was determined as 0.0289 s⁻¹ and the kon stood at 220000 M⁻¹ s⁻¹. In the assay with cyCD3e-Fc, this molecule gave a Kd of 130 nM, a koff of 0.0312 s⁻¹ and a kon of 240000 M⁻¹ s⁻¹.

B3: AC3364 (CD3.23-L7, WT) (bispecific antibody, V domains shown)
VH: B1 VH
VL: B1 VL
notes: Pool 1 format (remarks)
With B3, binding with human CD3 [1] was characterised by a dissociation constant (Kd) of 8.5 nM.

B4: AC2908 (EGFR.60/CD3.23 paTCE) (bispecific antibody)
scFv 1: EIVLTQSPGTLSLSPGERATLSCQASQDISNYLNWYQQKPGQAPRLLIYDASNLETGIPDRFSGSGSGTDFTLTISRLEPEDFAVYYCQHFDHLPLAFGQGTKVEIKGATPPETGAETESPGETTGGSAESEPPGEGQVQLQQWGAGLLKPSETLSLTCAVYGGSVSSGDYYWTWIRQPPGKGLEWIGHIYYSGNTNYNPSLKSRVTISVDTSKNQFSLKLSSVTAADTAVYYCARDRVTGAFDIWGQGTLVTVSS
scFv 2: ELVVTQEPSLTVSPGGTVTLTCRSSNGAVTSSNYANWVQQKPGQAPRGLIGGTNKRAPGTPARFSGSLLGGKAALTLSGVQPEDEAVYYCALWYPNLWVFGGGTKLTVLGATPPETGAETESPGETTGGSAESEPPGEGEVQLLESGGGIVQPGGSLKLSCAASGFTFNTYAMNWVRQAPGKGLEWVARIRSKYNNYATYYADSVKDRFTISRDDSKNTVYLQMNNLKTEDTAVYYCVRHENFGNSYVSWFAHWGQGTLVTVSS
notes: EGFR library format (remarks)
Turning to B4, the values for the Kd in the assay with human EGFR [2] and in the assay with human CD3 [3] were 7.3 nM and approximately 203 nM, respectively. For the same molecule, in the assay with human EGFR [4], the “EC50 HT-29 (pM), in vitro cytotoxicity, E:T 5:1” value was determined as 94 pM.

B5: AC2920 (EGFR.72/CD3.23 paTCE) (bispecific antibody)
scFv 1: B4 scFv 1 with G9A, D60A, R77S
scFv 2: B4 scFv 2
notes: EGFR library format (remarks)
B5: the figures for the Kd with human EGFR [2] and in the assay with human CD3 [3] were 4.4 nM and approximately 203 nM, respectively. In the assay with human EGFR [4], the “EC50 HT-29 (pM), in vitro cytotoxicity, E:T 5:1” value stood at 85 pM.

Source of the values: US20260167728A1 (published 2026).
